Results from paper PMC2883945 (Molecular Biology of the Cell, 2010).

Columns and labels:
[1] = molecular target: T1, Bik1 (purified from insect cells, 6xHis tag removed) (S. cerevisiae, UniProt P11709 1-440); test: SEC + other: sucrose gradient sedimentation
T1 sequence (looked up): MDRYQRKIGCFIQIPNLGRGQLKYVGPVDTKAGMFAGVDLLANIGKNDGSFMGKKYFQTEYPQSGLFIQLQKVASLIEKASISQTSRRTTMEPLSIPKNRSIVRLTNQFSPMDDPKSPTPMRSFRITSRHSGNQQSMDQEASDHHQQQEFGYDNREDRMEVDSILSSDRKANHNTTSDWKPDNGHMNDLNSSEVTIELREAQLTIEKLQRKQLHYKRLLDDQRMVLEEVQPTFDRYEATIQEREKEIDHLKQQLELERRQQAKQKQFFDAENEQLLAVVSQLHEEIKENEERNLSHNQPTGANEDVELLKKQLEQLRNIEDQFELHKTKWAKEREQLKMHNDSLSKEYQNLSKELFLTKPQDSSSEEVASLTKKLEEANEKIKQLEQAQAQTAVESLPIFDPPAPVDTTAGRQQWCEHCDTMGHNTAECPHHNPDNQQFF

[2] = molecular target: taxol-stabilized microtubules (bovine brain tubulin) (bovine) (UniProt Q6B856); test: co-sedimentation
[3] = molecular target: the molecule itself; test: SEC + other: sucrose gradient sedimentation

B1: Bim1 (purified from insect cells, 6xHis tag removed) (natural protein, S. cerevisiae, UniProt P40013 1-344, looked up)
chain: MSAGIGESRTELLTWLNGLLNLNYKKIEECGTGAAYCQIMDSIYGDLPMNRVKFNATAEYEFQTNYKILQSCFSRHGIEKTVYVDKLIRCKFQDNLEFLQWLKKHWIRHKDESVYDPDARRKYRPIITNNSATKPRTVSNPTTAKRSSSTGTGSAMSGGLATRHSSLGINGSRKTSVTQGQLVAIQAELTKSQETIGSLNEEIEQYKGTVSTLEIEREFYFNKLRDIEILVHTTQDLINEGVYKFNDETITGHGNGNGGALLRFVKKVESILYATAEGFEMNDGEDELNDKNLGEHGTVPNQGGYANSNGEVNGNEGSNHDVIMQNDEGEVGVSNNLIIDEETF
[1]
  stoichiometry N: 1 Bim1 per Bik1 (2:2 tetramer)
[2]
  Kd: 500 nM

B2: Bim1, endogenous in yeast whole cell extract (natural protein, S. cerevisiae (endogenous in CUY28), UniProt P40013 1-344, looked up)
chain: MSAGIGESRTELLTWLNGLLNLNYKKIEECGTGAAYCQIMDSIYGDLPMNRVKFNATAEYEFQTNYKILQSCFSRHGIEKTVYVDKLIRCKFQDNLEFLQWLKKHWIRHKDESVYDPDARRKYRPIITNNSATKPRTVSNPTTAKRSSSTGTGSAMSGGLATRHSSLGINGSRKTSVTQGQLVAIQAELTKSQETIGSLNEEIEQYKGTVSTLEIEREFYFNKLRDIEILVHTTQDLINEGVYKFNDETITGHGNGNGGALLRFVKKVESILYATAEGFEMNDGEDELNDKNLGEHGTVPNQGGYANSNGEVNGNEGSNHDVIMQNDEGEVGVSNNLIIDEETF
[3]
  stoichiometry N: 2

B3: Bik1, endogenous in yeast whole cell extract (natural protein, S. cerevisiae (endogenous in CUY28), UniProt P11709 1-440, looked up)
chain: MDRYQRKIGCFIQIPNLGRGQLKYVGPVDTKAGMFAGVDLLANIGKNDGSFMGKKYFQTEYPQSGLFIQLQKVASLIEKASISQTSRRTTMEPLSIPKNRSIVRLTNQFSPMDDPKSPTPMRSFRITSRHSGNQQSMDQEASDHHQQQEFGYDNREDRMEVDSILSSDRKANHNTTSDWKPDNGHMNDLNSSEVTIELREAQLTIEKLQRKQLHYKRLLDDQRMVLEEVQPTFDRYEATIQEREKEIDHLKQQLELERRQQAKQKQFFDAENEQLLAVVSQLHEEIKENEERNLSHNQPTGANEDVELLKKQLEQLRNIEDQFELHKTKWAKEREQLKMHNDSLSKEYQNLSKELFLTKPQDSSSEEVASLTKKLEEANEKIKQLEQAQAQTAVESLPIFDPPAPVDTTAGRQQWCEHCDTMGHNTAECPHHNPDNQQFF
[3]
  stoichiometry N: 2
